Substrate: N[C@@H](CC(=O)O)C(=O)O
Test: purified protein
Conditions: 37 °C, 5 min, PBS pH 7.0 (pH of the activity assay), pyruvoyl-dependent
[1] = variant N3, I126* = C-terminal deletion from residue 126
[2] = variant Y1, I126* = C-terminal deletion from residue 126

B1: BsADC (L-aspartate-alpha-decarboxylase, panD-wt) (Bacillus subtilis subsp. subtilis str. 168; A99E/DEL126-127/I88M/K113R/K63N/S7N) (protein)
chain 1: MYRTMMNGKLHRATVTEANLNYVG
chain 2: SITIDEDLIDAVGMLPNEKVQIVNNNNGARLETYIIPGNRGSGVICLNGAAARLVQEGDKVIIMSYKMMSDQEAESHEPKVAVLNDQNRIEQMLGNEPART
B1 gave a Km [1] of 3.22 ± 0.15 mM, a kcat [1] of 8.29 s⁻¹ and a kcat/Km [1] of 2570 M⁻¹ s⁻¹.

B2: BsADC (L-aspartate-alpha-decarboxylase, panD-wt) (Bacillus subtilis subsp. subtilis str. 168; A99E/DEL126-127/I88M/K113R/K63N/S7Y) (protein)
chain 1: MYRTMMYGKLHRATVTEANLNYVG
chain 2: B1 chain 2
Work on B2 yielded a Km [2] of 3.82 ± 0.29 mM, a kcat [2] of 7.26 s⁻¹ and a kcat/Km [2] of 1900 M⁻¹ s⁻¹.

B3: BsADC (L-aspartate-alpha-decarboxylase, panD-wt) (Bacillus subtilis subsp. subtilis str. 168) (protein)
chain 1: MYRTMMSGKLHRATVTEANLNYVG
chain 2: SITIDEDLIDAVGMLPNEKVQIVNNNNGARLETYIIPGKRGSGVICLNGAAARLVQEGDKVIIISYKMMSDQEAASHEPKVAVLNDQNKIEQMLGNEPARTIL
B3 showed a Km of 3.69 ± 0.33 mM, a kcat of 4.25 s⁻¹ and a kcat/Km of 1150 M⁻¹ s⁻¹.

Reference: paper PMC11808261
